Laboratory results taken from patent US20040053206A1 (DYAX, published 2004).
Changes are numbered by the printed parent chain.

B1: KKII/3#6 (designed binder)
chain: MHSFCAFKADDGHCKANHQRFFFNIFTRQCEEFSYGGCGGNQNRFESLEECKKMCTRD
notes: also called LACI(K1) variant
B2: KKII/3#9 (designed binder)
chain: B1 chain
notes: also called LACI(K1) variant
B3: KKII/3#4 (designed binder)
chain: B1 chain with E32Q, S34T, G39A
notes: also called LACI(K1) variant
B4: KKII/3#1 (designed binder)
chain: B1 chain with N17S, H18L, Q19P, S34I, G39E
notes: also called LACI(K1) variant
B5: KKII/3#3 (designed binder)
chain: B1 chain with S34T
notes: also called LACI(K1) variant
B6: KKII/3#2 (designed binder)
chain: B1 chain with H13P, Q19L
notes: also called LACI(K1) variant
B7: KKII/3#10 (designed binder)
chain: B1 chain with A16G, N17A, Q19L, S34I, G39E
notes: also called LACI(K1) variant
B8: KKII/3#5 (designed binder)
chain: B1 chain with N17S, H18L, Q19P, S34I
notes: also called LACI(K1) variant
B9: PEP-1 KI polypeptide (designed binder)
chain: EAMHSFCAFKADDGPCRAAHPRWFFNIFTRQCEEFIYGGCEGNQNRFESLEECKKMCTRD
notes: also called DX88

Legend:
[1] = molecular target: T1, human plasma kallikrein (human, UniProt P03952 20-638); assay: phage display selection
[2] = molecular target: human plasma factor XIa (human, UniProt P03951 19-625); assay: protease inhibition, apparent Ki (Ki,app)
[3] = molecular target: T1, human plasma kallikrein; assay: protease inhibition, apparent Ki (Ki,app)
[4] = molecular target: porcine pancreatic kallikrein (porcine, UniProt P00752 8-246); assay: protease inhibition, apparent Ki (Ki,app)
[5] = molecular target: human plasmin (human, UniProt P00747 97-810, limits assumed); assay: protease inhibition, apparent Ki (Ki,app)
[6] = molecular target: T1, human plasma kallikrein; assay: comparison of Ki,app values, reference aprotinin

T1 sequence (P03952 20-638 limits assumed): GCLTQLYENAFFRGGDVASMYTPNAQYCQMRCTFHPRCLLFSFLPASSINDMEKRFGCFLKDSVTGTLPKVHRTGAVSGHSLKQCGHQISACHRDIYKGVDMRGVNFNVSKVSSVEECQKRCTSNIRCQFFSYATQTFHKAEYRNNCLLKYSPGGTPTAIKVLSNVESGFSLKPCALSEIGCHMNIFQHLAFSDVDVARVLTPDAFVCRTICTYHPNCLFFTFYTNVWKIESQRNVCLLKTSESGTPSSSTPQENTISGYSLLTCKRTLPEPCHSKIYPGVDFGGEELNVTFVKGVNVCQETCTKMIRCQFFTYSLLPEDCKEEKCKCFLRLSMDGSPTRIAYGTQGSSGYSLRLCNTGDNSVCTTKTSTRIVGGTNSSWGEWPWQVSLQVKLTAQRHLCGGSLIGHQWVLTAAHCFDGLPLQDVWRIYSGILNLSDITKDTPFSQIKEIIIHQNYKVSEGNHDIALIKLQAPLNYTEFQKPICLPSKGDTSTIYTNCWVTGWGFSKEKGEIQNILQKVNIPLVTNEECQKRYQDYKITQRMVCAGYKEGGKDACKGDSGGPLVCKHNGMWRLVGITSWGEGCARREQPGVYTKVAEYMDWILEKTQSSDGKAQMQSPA
Chain of human plasmin (P00747 97-810 limits assumed): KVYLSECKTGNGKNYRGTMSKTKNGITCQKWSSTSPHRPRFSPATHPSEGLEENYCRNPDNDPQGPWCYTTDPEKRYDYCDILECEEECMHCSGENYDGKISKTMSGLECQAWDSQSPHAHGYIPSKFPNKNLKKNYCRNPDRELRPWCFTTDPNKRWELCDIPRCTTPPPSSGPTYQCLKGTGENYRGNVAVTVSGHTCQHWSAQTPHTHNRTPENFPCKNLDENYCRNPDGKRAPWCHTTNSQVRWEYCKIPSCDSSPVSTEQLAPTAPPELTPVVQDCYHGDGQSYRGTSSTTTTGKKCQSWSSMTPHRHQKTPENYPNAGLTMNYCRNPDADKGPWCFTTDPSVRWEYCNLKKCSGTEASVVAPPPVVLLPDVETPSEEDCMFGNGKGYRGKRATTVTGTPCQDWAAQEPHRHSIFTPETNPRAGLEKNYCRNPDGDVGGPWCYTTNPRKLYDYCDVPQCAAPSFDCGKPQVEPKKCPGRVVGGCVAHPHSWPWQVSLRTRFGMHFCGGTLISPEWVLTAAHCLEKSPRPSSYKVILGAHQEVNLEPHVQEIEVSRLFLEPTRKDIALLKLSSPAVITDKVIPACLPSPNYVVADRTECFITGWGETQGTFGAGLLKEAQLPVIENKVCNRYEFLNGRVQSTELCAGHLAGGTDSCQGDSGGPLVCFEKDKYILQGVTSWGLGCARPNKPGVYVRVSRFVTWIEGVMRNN
Chain of porcine pancreatic kallikrein (P00752 8-246): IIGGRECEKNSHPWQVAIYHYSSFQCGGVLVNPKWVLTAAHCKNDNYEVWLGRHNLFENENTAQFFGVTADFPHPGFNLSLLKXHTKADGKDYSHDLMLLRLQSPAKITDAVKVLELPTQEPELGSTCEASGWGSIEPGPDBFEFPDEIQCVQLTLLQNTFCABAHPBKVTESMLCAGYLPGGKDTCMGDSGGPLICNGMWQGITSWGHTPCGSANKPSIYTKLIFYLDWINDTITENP

| Binder | binding result [1] | also measured |
| --- | --- | --- |
| B1 | binds |  |
| B2 | binds |  |
| B3 | binds |  |
| B4 | binds |  |
| B5 | binds |  |
| B6 | binds |  |
| B7 | binds |  |
| B8 | binds |  |
| B9 |  | Ki [2]: 10 nM; Ki [3]: 0.044 nM; Ki [4]: 27000 nM; Ki [5]: 140 nM; fold higher affinity (Ki,app) than aprotinin [6]: 1000 fold |
